The chains are these.
B2: EccB3 (natural protein)
chain: MTGPVNPDDRRSFSSRTPVNENPDGVQYRRGFVTRHQVSGWRFVMRRIASGVALHDTRMLVDPLRTQSRAVLTGALILVTGLVGCFIFSLFRPGGVPGNNAILADRSTSALYVRVGEQLHPVLNLTSARLISGSPDNPTMVKTSEIDKFPRGNLLGIPGAPERMVQNAATDAEWTVCDAVGGANPGVTVIAGPLGADGERAAPLPPDHAVLVHSDAEPNPGDWLLWDGKRSPIDLADRAVTDALGLGGQALAPRPIAAGLFNAVPAAPALTAPVIPDAGAAPQFELSLPVPVGAVVVAYDADNTARYYAVLSDGLQPISPVLAAILRNTDSHGFAQPPRLGPDEVARTPMSRGLDTSAYPDNPVTLVEASAHPVTCAHWTKPSDAAESSLSVLSGAVLPLAEGLHTVDLVGAGAGGAANRVALTPGTGYFVQTVGAEPGSPTAGSMFWVSDTGVRYGIDTAEDDKVVAALGLSTSPLPVPWSVLSQFAAGPALSRGDALVAHDAVSTNPNSARMEASR
B3: EccD3 (natural protein)
chain: MSENTVMPIVRVAVLAAGDDGGRLTEMALPSELPLREILPAVQRIVQPARENDGAADPAAAPNPVRLSLAPIGGAPFSLDATLDTVGVVDGDLLALQAVPSGPPAPRIVEDIADAAVIFSEARRRQWGPTHIARGAALALIGLILVGTGLSVAHRVITGDLLGQFIVSGIALATVIAALAVRNRSAVLATSLAVTALVPVAAAFALGVPGDFGAPNVLLAAAGVAAWSLISMAGSPDDRGIAVFTATAVTGVGVLLVAGAASLWVISSDVIGCALVLLGLIVTVQAAQLSAMWARFPLPVIPAPGDPTPAARPLSVLADLPRRVRVSQAHQTGVIAAGVLLGVAGSVALVSSANASPWAWYIVVAAAAGAALRARVWDSAACKAWLLGHSYLLAVALLVAFVIGDRYQAALWALAALAVLVLVWIVAALNPKIASPDTYSLPMRRMVGFLATGLDASLIPVMALLVGLFSLVLDR

Experiment in all cases: cryo-EM structure
In the data set “EccD3” the target is B3.
The data set “cryo-EM structure” deals with the molecule itself.
The next data set concerns the target T1, EccC3 (M. smegmatis (endogenous in M. …, UniProt A0QQ40 1-1325)).
T1 sequence: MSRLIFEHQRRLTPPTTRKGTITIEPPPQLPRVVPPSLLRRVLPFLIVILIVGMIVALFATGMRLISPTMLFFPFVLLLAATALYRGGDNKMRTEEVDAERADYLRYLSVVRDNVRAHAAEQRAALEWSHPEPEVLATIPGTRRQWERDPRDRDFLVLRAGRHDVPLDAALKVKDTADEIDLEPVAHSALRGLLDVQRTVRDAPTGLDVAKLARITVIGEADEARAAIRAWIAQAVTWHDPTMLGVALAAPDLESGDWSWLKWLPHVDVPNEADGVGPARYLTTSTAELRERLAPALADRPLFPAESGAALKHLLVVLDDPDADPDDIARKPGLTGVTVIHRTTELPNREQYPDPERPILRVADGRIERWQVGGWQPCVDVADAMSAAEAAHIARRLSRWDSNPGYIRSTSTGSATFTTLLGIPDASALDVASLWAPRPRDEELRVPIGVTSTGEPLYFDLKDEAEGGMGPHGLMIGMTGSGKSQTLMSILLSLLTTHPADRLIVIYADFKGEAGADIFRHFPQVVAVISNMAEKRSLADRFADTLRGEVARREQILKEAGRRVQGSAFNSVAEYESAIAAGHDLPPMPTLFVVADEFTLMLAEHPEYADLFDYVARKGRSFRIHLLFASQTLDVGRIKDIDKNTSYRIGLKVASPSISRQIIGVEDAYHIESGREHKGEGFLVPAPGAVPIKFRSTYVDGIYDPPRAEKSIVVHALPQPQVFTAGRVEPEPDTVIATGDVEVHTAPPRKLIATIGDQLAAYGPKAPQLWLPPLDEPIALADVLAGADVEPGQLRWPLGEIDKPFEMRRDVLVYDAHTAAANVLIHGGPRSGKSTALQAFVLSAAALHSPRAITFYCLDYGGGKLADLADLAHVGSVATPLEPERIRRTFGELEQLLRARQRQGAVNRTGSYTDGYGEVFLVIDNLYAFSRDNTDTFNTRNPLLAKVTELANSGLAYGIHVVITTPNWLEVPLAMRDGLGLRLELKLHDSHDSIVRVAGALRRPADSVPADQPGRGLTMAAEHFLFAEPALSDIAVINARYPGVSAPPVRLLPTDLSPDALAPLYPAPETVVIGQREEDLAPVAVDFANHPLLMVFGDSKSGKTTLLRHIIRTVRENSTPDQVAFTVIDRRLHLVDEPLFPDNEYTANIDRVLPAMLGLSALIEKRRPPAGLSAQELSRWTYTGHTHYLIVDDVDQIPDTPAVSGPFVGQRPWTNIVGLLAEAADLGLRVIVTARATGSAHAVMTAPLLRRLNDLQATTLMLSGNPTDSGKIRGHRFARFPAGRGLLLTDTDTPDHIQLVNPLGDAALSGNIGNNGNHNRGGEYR

The target of the data set “EccB3” is B2.

The values below come from article doi:10.1101/800169 (bioRxiv, 2019).

As a reminder, the stoichiometry N is a count of units in the complex or per binding partner.

B1: EccE3 (natural protein)
chain: MTARIALASLFVVAAVLAQPWQTTTQRWVLGVSIAAVIVLLAWWKGMFLTTRIGRALAMVRRNRAEDTVETDAHRATVVLRVDPAAPAQLPVVVGYLDRYGITCDKVRITHRDAGGTRRSWISLTVDAVDNLAALQARSARIPLQDTTEVVGRRLADHLREQGWTVTVVEGVDTPLPVSGKETWRGVADDAGVVAAYRVKVDDRLDEVLAEIGHLPAEETWTALEFTGSPAEPLLTVCAAVRTSDRPAAKAPLAGLTPARGRHRPALAALNPLSTERLDGTAVPLPAVVRTSVKGSVEHEAAQEAGHPA
On to B1, for which the binding result in the data set with EccD3 is “binds”.

As for B2, the binding result in “cryo-EM structure” and with EccC3 was “binds” throughout.

Take B3: in the data set “cryo-EM structure”, the “stoichiometry N” value came to 2. The binding result with EccB3 and with EccC3 was “binds” each time.
